{"source": "patent US9642898B2", "about": "“Use of serine protease inhibitors in the treatment of neutropenia” (Med Discovery S.A., priority 2009, dated 2017)", "key": {"neutrophils [1]": {"system": "neutrophils", "assay": "Annexin-V staining / FACS analysis of neutrophil apoptosis in vitro", "assay_type": "cell-based, human", "description": "(§1) To assess viability of neutrophils in-vitro, peripheral blood from healthy donors was erythrocyte-lyzed and neutrophils or peripheral blood mononuclear cells (PBMCs) were isolated. Cultures in RPMI10%FCS were performed in 96 well microtiter plates (5×10^5cells/well) unless otherwise stated. The percentage of apoptotic neutrophils or PBMCs was assessed based on binding of fluorescent Annexin V-protein binding or measuring of CD11b or CD16 surface expression by FACS (fluorescent activated cell sorter) analysis.\n(§2) Cells were incubated for 24 or 48 hours with MDPK67b at concentrations ranging from 6 μM to 60 μM, as indicated, or PBS as control. Apoptosis was assessed by Annexin V staining and FACS analysis. Indicated leukocyte populations were gated based on their appearance in a forward scatter/sideward scatter FACS dot plot (neutrophils) or by positive staining for CD3 (T cells).\nNeutrophils were incubated for 18 hours with MDPK67b or MDOKG9 concentrations ranging from 60 μM (dilution 1) to […] as indicated. Apoptosis was assessed as outlined above.\nNeutrophils were cultured with the indicated concentrations of MDPK67b. PBS without MDPK67b served as a control. Neutrophils were plated (100 μl/well) either at 5×10^6/ml (high density) or 3×10^5/ml (low density) and neutrophil apoptosis was assessed by AnnexinV staining and FACS analysis. Culturing of 5×10^6/ml neutrophils in serum free medium (X-Vivo 15) instead of RPMI10% FCS was assessed in parallel.\n(§3) Neutrophils were cultured with the indicated concentrations of MDPK67b in presence or absence of the Src tyrosine kinase inhibitor PP2 (final concentration 10 μM). Apoptosis and relative frequencies of CD11b and CD16 high expressing neutrophils were measured by FACS analysis.\nNeutrophils were cultured with the indicated concentrations of G-CSF and neutrophil Apoptosis (FIG. 6A) and down-regulation of CD 16 expression (FIG. 6B) were analyzed by FACS. FIG. 6C: Neutrophils were cultured with MDPK67b (0.6 μM) and titrated amounts of G-CSF (concentrations as indicated). Neutrophils cultured in medium and PBS (without MDPK67b) served as a control.\nCells were incubated during 18 hours with MDPK67b (6 μM) plus Etoposid (125 μg/ml), Etoposid alone or PBS. Apoptosis was assessed by Annexin V staining and FACS analysis. Relevant leukocyte populations were gated based on their appearance in a forward scatter or sideward scatter FACS dot plot.\nCells were incubated for 18 hours with MDPK67b (0.06 μM) alone or MDPK67b (0.06 μM) plus increasing concentrations of Etopsid (in μg/ml) as indicated or PBS. Apoptosis was assessed by Annexin V staining and FACS analysis was performed as mentioned above."}, "neutrophils [2]": {"system": "neutrophils", "assay": "CD16 / CD11b surface expression of cultured neutrophils by FACS", "assay_type": "cell-based, human", "description": "as §1\nNeutrophils were cultured with the indicated concentrations of MDPK67b and percentage of neutrophils expressing high levels of CD16 or CD11b was assessed by FACS. Representative FACS plots are shown.\nas §3"}, "hK2": {"biological_target": "hK2 (Homo sapiens, UniProt P20151)", "sequence (P20151 25-261)": "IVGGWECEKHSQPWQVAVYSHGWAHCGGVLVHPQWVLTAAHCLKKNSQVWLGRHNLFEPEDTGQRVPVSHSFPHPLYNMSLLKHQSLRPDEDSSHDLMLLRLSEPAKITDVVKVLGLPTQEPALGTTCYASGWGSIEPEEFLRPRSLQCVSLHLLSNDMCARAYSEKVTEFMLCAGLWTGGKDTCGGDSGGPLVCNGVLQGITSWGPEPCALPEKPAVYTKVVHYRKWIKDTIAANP", "assay": "Inhibition of kallikrein hK2 by chimeric serpin", "assay_type": "biochemical", "source_text": "These chimeric inhibitor proteins have been obtained by modifying the RSL of α1-antichymotrypsin (rACT), which is known to inhibit a large panel of human enzymes such as chymotrypsin, mast cell chymase , cathepsin G , prostatic kallikreins hK2 and PSA (hK3), in order to change the specificity of this serpin. Peptide sequences, selected as substrates for the enzyme hK2 by phage display technology as explained in International Patent Application PCT/IB2004/001040, have been used to replace the scissile bond and neighbor amino acid residues of the RSL. Recombinant inhibitors were produced in bacteria and purified by affinity chromatography."}, "hK3": {"biological_target": "hK3 (Homo sapiens, UniProt P07288)", "sequence (P07288 25-261)": "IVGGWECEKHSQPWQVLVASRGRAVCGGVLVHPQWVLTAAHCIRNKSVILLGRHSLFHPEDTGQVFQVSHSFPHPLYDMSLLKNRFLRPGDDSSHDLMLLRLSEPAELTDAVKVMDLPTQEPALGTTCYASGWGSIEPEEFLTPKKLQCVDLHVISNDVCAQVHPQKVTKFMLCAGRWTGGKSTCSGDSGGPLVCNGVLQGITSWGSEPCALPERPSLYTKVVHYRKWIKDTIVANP", "assay": "Inhibition of kallikrein hK3 by chimeric serpin", "assay_type": "biochemical"}, "monocytes or lymphocytes": {"system": "monocytes or lymphocytes", "assay": "Annexin-V staining / FACS analysis of monocytes or lymphocytes (PBMCs)", "assay_type": "cell-based, human", "description": "as §1, §2"}, "T cells": {"system": "T cells", "assay": "Annexin-V staining / FACS analysis of T cells (CD3 positive)", "assay_type": "cell-based, human", "settings": "24 or 48 hours", "description": "as §1, §2"}, "neutrophils [3]": {"system": "neutrophils", "assay": "Annexin-V staining / FACS analysis of neutrophil apoptosis in vitro", "assay_type": "cell-based, human", "settings": "doses ranging from 60 μM down to 0.6 μM; 18, 24 or 48 hours; PBS control"}, "[4]": {"settings": "neutrophils cultured with MDPK67b plus kinase inhibitor (PP2 final concentration 10 μM)"}}}
{"molecule": "COc1cc([C@@H]2c3cc4c(cc3[C@@H](O[C@@H]3O[C@@H]5CO[C@@H](C)O[C@H]5[C@H](O)[C@H]3O)[C@H]3COC(=O)[C@H]23)OCO4)cc(OC)c1O", "note": "[Etoposid, reference compound]", "values": [{"measurement": "block of the apoptosis reducing effect of MDPK67b", "setting": "neutrophils [1]; Etoposid up to 125 μg/ml, 18 hours", "value": "only partially block"}]}
{"molecule": "CC(C)(C)n1nc(-c2ccc(Cl)cc2)c2c(N)ncnc21", "note": "[PP2, reference compound]", "values": [{"measurement": "reversal of the decreased apoptosis in the presence of MDPK67b by kinase inhibitor", "setting": "neutrophils [1]; [4]", "value": "can be reversed"}, {"measurement": "reversal of the increased frequency of CD11b high expressing neutrophils in the presence of MDPK67b by kinase inhibitor", "setting": "neutrophils [2]; [4]", "value": "can be reversed"}]}
{"molecule": "MDCI: chimeric inhibitor: P3-P3′ of rACTWT RSL replaced by RSL of Protein C inhibitor; SEQ ID No 14 (protein) MRGSHHHHHHSRHPNSPLDEENLTQENQDRGTHVDLGLASANVDFAFSLYKQLVLKAPDKNVIFSPLSISTALAFLSLGAHNTTLTEILKGLKFNLTETSEAEIHQSFQHLLRTLNQSSDELQLSMGNAMFVKEQLSLLDRFTEDAKRLYGSEAFATDFQDSAAAKKLINDYVKNGTRGKITDLIKDLDSQTMMVLVNYIFFKAKWEMPFDPQDTHQSRFYLSKKKWVMVPMMSLHHLTIPYFRDEELSCTVVELKYTGNASALFILPDQDKMEEVEAMLLPETLKRWRDSLEFREIGELYLPKFSISRDYNLNDILLQLGIEEAFTSKADLSGITGARNLAVSQVVHKAVLDVFEEGTEASAATAVKITFRSALVETRTIVRFNRPFLMIIVPTDTQNIFFMSKVTNPKQA", "values": [{"measurement": "inhibition of kallikrein hK2", "setting": "hK2", "value": "able to inhibit"}, {"measurement": "inhibition of kallikrein hK3", "setting": "hK3", "value": "able to inhibit"}]}
{"molecule": "MDPK67b: chimeric inhibitor protein specific for hK2, modified RSL of α1-antichymotrypsin; amino acid sequence SEQ ID NO 16 (protein) MHPNSPLDEENLTQENQDRGTHVDLGLASANVDFAFSLYKQLVLKAPDKNVIFSPLSISTALAFLSLGAHNTTLTEILKGLKFNLTETSEAEIHQSFQHLLRTLNQSSDELQLSMGNAMFVKEQLSLLDRFTEDAKRLYGSEAFATDFQDSAAAKKLINDYVKNGTRGKITDLIKDLDSQTMMVLVNYIFFKAKWEMPFDPQDTHQSRFYLSKKKWVMVPMMSLHHLTIPYFRDEELSCTVVELKYTGNASALFILPDQDKMEEVEAMLLPETLKRWRDSLEFREIGELYLPKFSISRDYNLNDILLQLGIEEAFTSKADLSGITGARNLAVSQVVHKAVLDVFEEGTEASAATAVKIKLRTTLVETRTIVRFNRPFLMIIVPTDTQNIFFMSKVTNPKQA", "values": [{"measurement": "apoptosis of monocytes or lymphocytes", "setting": "monocytes or lymphocytes", "value": "did not inhibit apoptosis of monocytes or lymphocytes"}, {"measurement": "protection of neutrophils from apoptosis compared to G-CSF", "setting": "neutrophils [1]", "value": "Superior Effect"}, {"measurement": "apoptosis of neutrophils under various culture conditions", "setting": "neutrophils [1]; 5×10^6/ml (high density) or 3×10^5/ml (low density), RPMI10% FCS or serum free medium (X-Vivo 15)", "value": "inhibits apoptosis of neutrophils in vitro independently of cell density and presence or absence of serum"}, {"measurement": "cytostatic drug-induced apoptosis of neutrophils", "setting": "neutrophils [1]; 18 hours, MDPK67b (6 μM or 0.06 μM) plus Etoposid", "value": "Reduces Cytostatic Drug-induced Apoptosis of Neutrophils"}, {"measurement": "effect of MDPK67b on neutrophil apoptosis in presence of G-CSF", "setting": "neutrophils [1]; MDPK67b (0.6 μM) and titrated amounts of G-CSF", "value": "not affected by G-CSF"}, {"measurement": "frequency of neutrophils that express CD16 and CD11b at high levels", "setting": "neutrophils [2]; indicated concentrations of MDPK67b", "value": "increases dose-dependently"}, {"measurement": "T-cell survival (Annexin V staining)", "setting": "T cells", "value": "No Significant Effect on T-cell Survival"}, {"measurement": "apoptosis of neutrophils (Annexin V staining)", "setting": "neutrophils [3]", "value": "inhibit apoptosis of neutrophils"}]}
{"molecule": "G-CSF (protein, UniProt P09919 31-207, looked up, present agent used for the treatment of neutropenia) Granulocyte …: TPLGPASSLPQSFLLKCLEQVRKIQGDGAALQEKLVSECATYKLCHPEELVLLGHSLGIPWAPLSSCPSQALQLAGCLSQLHSGLFLYQGLLQALEGISPELGPTLDTLQLDVADFATTIWQQMEELGMAPALQPTQGAMPAFASAFQRRAGGVLVASHLQSFLEVSYRVLRHLAQP", "values": [{"measurement": "effect on neutrophil apoptosis, alone", "setting": "neutrophils [1]; G-CSF alone, indicated concentrations", "value": "only a mild protecting effect"}]}
